Source: US20200157223A1 (SHANGHAI JMT BIO TECHNOLOGY, published 2020)

What was measured:
[1] = target: T1, CD47-His (12283-H08H-200, Sino Biological) (human, UniProt Q08722 19-139); assay: ELISA on coated CD47-His
T1 construct: Bought protein coated on ELISA plates; also called CD47 antigen; human CD47 (protein level); not shown: His tag

[2] = target: T2, CD47 on the cell surface (A431, Raji, SKBR-3, NCI-H441, NK92MI-CD16a cells) (human, UniProt Q08722 19-323); assay: cell-based or functional assay
[3] = target: T2, CD47 on the cell surface (A431, Raji, …); assay: flow cytometry on NCI-H441 cells
[4] = target: T2, CD47 on the cell surface (A431, Raji, …); assay: flow cytometry on A431 cells (no CD20)
[5] = target: T2, CD47 on the cell surface (A431, Raji, …); assay: flow cytometry on Raji cells
[6] = target: T2, CD47 on the cell surface (A431, Raji, …); assay: flow cytometry on A431 cells
[7] = target: T2, CD47 on the cell surface (A431, Raji, …); assay: flow cytometry on SKBR-3 cells
[8] = target: T2, CD47 on the cell surface (A431, Raji, …); assay: flow cytometry on IFN-γ-stimulated NCI-H441 cells

B1: Anti-EGFR mAb (JMT101) (antibody, human IgG1, kappa, V domains shown)
VH: QVQLQESGPGLVKPSETLSLTCTVSGFSLSNYDVHWVRQAPGKGLEWLGVIWSGGNTDYNTPFTSRLTISVDTSKNQFSLKLSSVTAADTAVYYCARALDYYDYEFAYWGQGTLVTVSS
VL: EIVLTQSPDFQSVTPKEKVTITCRASQSIGTNIHWYQQKPDQSPKLLIKYASESISGIPSRFSGSGSGTDFTLTINSLEAEDAATYYCQQNNEWPTSFGQGTKLEIKR
notes: Humanized anti-EGFR monoclonal antibody
Question: Does B1 bind [1]?
Answer: no binding

B2: Anti-EGFR-Fc1-D1-Fc2 (bispecific antibody, human IgG1, kappa)
heavy: not shown
light: EIVLTQSPDFQSVTPKEKVTITCRASQSIGTNIHWYQQKPDQSPKLLIKYASESISGIPSRFSGSGSGTDFTLTINSLEAEDAATYYCQQNNEWPTSFGQGTKLEIKRTVAAPSVFIFPPSDEQLKSGTASVVCLLNNFYPREAKVQWKVDNALQSGNSQESVTEQDSKDSTYSLSSTLTLSKADYEKHKVYACEVTHQGLSSPVTKSFNRGEC
chain: not shown
notes: Knobs-into-holes heterodimer; left arm is the JMT101 half antibody; also called Anti-EGFR-Fc1-D1-Fe2
Question: For B2, which “toxic side effects caused by NK cells (ADCC on NK92MI-CD16a cells), reduction against the D1^m proteins” value [2] is on record?
Answer: ≥ 1000 fold

Question: And the EC50 [1]?
Answer: 0.0939 µg/mL

B3: Anti-EGFR-Fc1-D1^m-D2-Fc2 (bispecific antibody, human IgG1, kappa)
heavy: not shown
light: B2 light
chain: not shown
notes: Knobs-into-holes heterodimer
Question: Does B3 bind [1]?
Answer: binds

B4: Anti-EGFR-Fc1-D1-D2-D3-Fc2 (bispecific antibody, human IgG1, kappa)
heavy: not shown
light: B2 light
chain: not shown
Question: For B4, which “toxic side effects caused by NK cells (ADCC on NK92MI-CD16a cells), reduction against the D1^m proteins” value [2] is on record?
Answer: ≥ 1000 fold

B5: Anti-EGFR-Fc1-D1^m-Fc2 (bispecific antibody, human IgG1, kappa)
heavy: not shown
light: B2 light
chain: not shown
notes: Knobs-into-holes heterodimer
Question: Does B5 bind [1]?
Answer: binds

B6: Anti-EGFR-Fc1-D1-D2-Fc2 (bispecific antibody, human IgG1, kappa)
heavy: not shown
light: B2 light
chain: not shown
Question: Which “toxic side effects caused by NK cells (ADCC on NK92MI-CD16a cells), reduction against the D1^m proteins” value [2] does the source give for B6 here?
Answer: ≥ 1000 fold

B7: Anti-CD20 mAb (Ofatumumab) (antibody, human IgG1, kappa)
heavy: not shown
light: not shown
notes: also called Anti-CD20 (Ofatumumab)
Question: Does B7 bind [1]?
Answer: no binding

Question: And the “Maximum average fluorescence intensity” value [3]?
Answer: 3500

Question: Does B7 bind [4]?
Answer: no binding

B8: Obi-Fc1-D1-Fc2 (bispecific antibody)
heavy: not shown
light: DIVMTQTPLSLPVTPGEPASISCRSSKSLLHSNGITYLYWYLQKPGQSPQLLIYQMSNLVSGVPDRFSGSGSGTDFTLKISRVEAEDVGVYYCAQNLELPYTFGGGTKVEIKRTVAAPSVFIFPPSDEQLKSGTASVVCLLNNFYPREAKVQWKVDNALQSGNSQESVTEQDSKDSTYSLSSTLTLSKADYEKHKVYACEVTHQGLSSPVTKSFNRGEC
chain: not shown
Question: B8 was tested. Which “toxic side effects caused by NK cells (ADCC on NK92MI-CD16a cells), reduction against the D1^m proteins” value [2] did it give?
Answer: ≥ 1000 fold

B9: Anti-CD20 mAb (Obinutuzumab) (antibody, human IgG1, kappa)
heavy: not shown
light: B8 light
notes: also called Anti-CD20 (Obinutuzumab)
Question: Does B9 bind [4]?
Answer: no binding

B10: Obi-Fc1-D1-D2-D3-Fc2 (bispecific antibody)
heavy: not shown
light: B8 light
chain: not shown
Question: Which “toxic side effects caused by NK cells (ADCC on NK92MI-CD16a cells), reduction against the D1^m proteins” value [2] does the source give for B10 here?
Answer: ≥ 1000 fold

B11: Obi-Fc1-D1-D2-Fc2 (bispecific antibody)
heavy: not shown
light: B8 light
chain: not shown
Question: How did the “toxic side effects caused by NK cells (ADCC on NK92MI-CD16a cells), reduction against the D1^m proteins” value [2] turn out when B11 was run?
Answer: ≥ 1000 fold

B12: Anti-CD47 mAb (Hu5F9-G4) (antibody, human IgG4 S228P, kappa)
heavy: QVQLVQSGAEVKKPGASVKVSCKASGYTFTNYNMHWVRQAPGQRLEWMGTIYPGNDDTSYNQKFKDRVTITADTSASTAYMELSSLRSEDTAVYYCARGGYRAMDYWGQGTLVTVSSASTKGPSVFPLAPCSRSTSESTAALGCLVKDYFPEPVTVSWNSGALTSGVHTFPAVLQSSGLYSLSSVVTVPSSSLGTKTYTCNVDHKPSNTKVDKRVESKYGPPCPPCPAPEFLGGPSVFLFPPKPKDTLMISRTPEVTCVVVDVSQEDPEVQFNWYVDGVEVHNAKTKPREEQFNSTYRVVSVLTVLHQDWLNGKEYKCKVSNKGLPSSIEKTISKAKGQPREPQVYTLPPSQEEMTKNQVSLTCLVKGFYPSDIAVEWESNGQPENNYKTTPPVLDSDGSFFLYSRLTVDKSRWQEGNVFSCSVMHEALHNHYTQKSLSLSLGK
light: DIVMTQSPLSLPVTPGEPASISCRSSQSIVYSNGNTYLGWYLQKPGQSPQLLIYKVSNRFSGVPDRFSGSGSGTDFTLKISRVEAEDVGVYYCFQGSHVPYTFGQGTKLEIKRTVAAPSVFIFPPSDEQLKSGTASVVCLLNNFYPREAKVQWKVDNALQSGNSQESVTEQDSKDSTYSLSSTLTLSKADYEKHKVYACEVTHQGLSSPVTKSFNRGEC
notes: also called anti-CD47 antibody; Hu5F9-64
Question: For B12, which EC50 [1] is on record?
Answer: 0.00544 µg/mL

Question: What about the EC50 [5] of the same binder?
Answer: 0.258 nM

Question: And the EC50 [6]?
Answer: 0.865 nM

Question: And the EC50 [7]?
Answer: 0.456 nM

Question: And the EC50 [3]?
Answer: 0.286 nM

Question: And the “Maximum average fluorescence intensity” value [3]?
Answer: 120000

Question: What about the EC50 [8] of the same binder?
Answer: 0.387 nM
